This is an account of results in patent US6660837B1, “Modified protein derived from protein kinase N” (Kirin Beer Kabushiki Kaisha, priority 1995, dated 2003).

Experiment [1] addresses T1, in vitro translated PKNN2 (Homo sapiens, UniProt Q16512).
T1 construct: made in house; host or cells: in vitro translation in rabbit reticulocyte lysate (Promega)
As to the kind of experiment: In vitro binding of GST-HuActSkl fragments to PKNN2. The conditions noted are these: resistant to 0.5% Triton X-100/0.5 M NaCl wash. As to the method: In vitro transcription for the N-terminal region of PKN (the amino acid sequence 1-474, this region being designated as PKNN2 (Example 8)) was performed as described in Example 8. For in vitro translation, cRNAs were translated in rabbit reticulocyte lysate (Promega) in the presence of [^35S] methionine as described in Example 8.
For in vitro binding experiment, 2 μl of in vitro translated PKNN2 was mixed with 5 μg of each GST-α-actinin fusion protein or with 25 μg of GST alone in 400 μl of GST binding buffer (20 mM Tris/HCl at pH 7.5, 0.5 mM DTT, 150 mM NaCl, 0.05% Triton-X100, 1 mM EDTA, 1 μg/ml leupeptin) and incubated for 1 hr at 4° C. After addition of 25 μl of glutathione-Sepharose 4B pretreated with 10 mg/ml of E. coli extract to block nonspecific binding, the binding reaction was continued for additional 30 min at 4° C. The glutathione-Sepharose 4B was then washed four times in GST washing buffer (20 mM Tris/HCl at pH 7.5, 0.5 mM DTT, 1 mM EDTA, 1 μg/ml leupeptin) containing 0.5 M NaCl and 0.5% Triton X-100, and further washed with GST washing buffer. Bound proteins were eluted with GST elution buffer (100 mM Tris/HCl at pH 7.5, 10 mM glutathione, 120 mM NaCl, 1 mM EDTA, 0.5 mM DTT, 1 μg/ml leupeptin) and were subjected to SDS-PAGE. The binding was visualized and quantitated by an imaging analyzer (FUJI BAS1000).

In a further experiment the target is T2, PKN (Rattus norvegicus, UniProt Q63433).
T2 construct: The purified PKN (1 ng) from rat testis cytosol; from tissue; host or cells: rat testis (cytosol / soluble fraction)
Description: Phosphorylation of recombinant GST-NF domains by PKN. It is filed as biochemical. The conditions noted are these: GST-head-rod domain of each NF subunit. As to the method: (§1) Soluble cytosolic extract of spinal cord or purified NF proteins were boiled for 5 min to destroy endogenous protein kinase activity prior to their use as phosphate acceptors. The phosphorylation of NF preparations was carried out at 30° C. in an assay mixture containing 20 mM Tris/HCl at pH 7.5, 8 mM MgCl2, 100 μM ATP, 185 kBq of [γ-^32P]ATP, each subunit of NF, 20 ng/ml of purified PKN from rat testis, and with/without 40 μM arachidonic acid as indicated in each experiment. Reactions were terminated after various times by the addition of an equal volume of Laemli's sample buffer, and separation was performed on 7% SDS-PAGE. The gels were dried under vacuum and exposure to BAS1000 bio-imaging analyzer. Dephosphorylation of NF proteins was conducted with calf intestine alkaline phosphatase according to a method described in Carden, M. J. et al., J. Biol. Chem. 260, 9805-9817 (1985) and terminated after boiling for 5 min.
(2) Phosphorylation of Recombinant NF by PKN To identify the region containing the phosphorylation site of NF by PKN, GST-head-rod and -tail domain of each subunit of NFs were bacterially synthesized (Example 8), and subjected to in vitro phosphorylation assay in the same manner as described above. […] The GST-tail domain of each subunit was not labeled at all. PKN also phosphorylated the GST-head-rod domain of vimentin (data not shown).

In experiment [2] the target is T3, purified PKN from rat testis (Rattus norvegicus, UniProt Q63433).
T3 construct: The purified PKN (1 ng) from rat testis cytosol; from tissue; host or cells: rat testis (cytosol / soluble fraction)
As to the kind of experiment: Phosphorylation of native NF by PKN. It is filed as biochemical. The following applies: native bovine NF, with arachidonic acid; estimated by image quant. As to the method: Native NFs were prepared from bovine spinal cords according to a method described in Hisanaga, S. & Hirokawa, N., J. Mol. Biol. 202, 297-305 (1988). Kinase assay was carried out according to the following method.
as §1

The target in the next experiment is T4, RhoA^Val14 CLVL^− (Homo sapiens, UniProt P61586, G14V).
T4 construct: expressed in transfected cells; host or cells: yeast strain L40
As to the kind of experiment: Yeast two-hybrid, truncated PKN with RhoA^Val14CLVL^−. It is filed as binding. The following applies: yeast L40. An excerpt:
The cDNA fragments encoding various length of human PKN were inserted into the vector pBTM116 (Example 7) in frame with the upstream LexA DNA-binding domain sequences or the vector pVP16 (Example 7) in frame with the upstream VP16 transcription activation domain sequences. The cDNA fragments encoding human RhoA, RhoA^Val14, and RhoA^Ala37 were obtained by digesting pGEX-RhoA, pGEX-RhoA^Val14, and pGEX-RhoA^Ala37 (Example 1) with restriction enzymes, respectively, then cloned into pBTM116 and pVP16.
The expression plasmids were transfected into yeast L40 cells and plated on semi-solid media lacking tryptophan and leucine. Interaction was examined using a filter lift assay for the β-galactosidase activity in the same manner as in Example 6. […]

T1 sequence (Q16512 1-474): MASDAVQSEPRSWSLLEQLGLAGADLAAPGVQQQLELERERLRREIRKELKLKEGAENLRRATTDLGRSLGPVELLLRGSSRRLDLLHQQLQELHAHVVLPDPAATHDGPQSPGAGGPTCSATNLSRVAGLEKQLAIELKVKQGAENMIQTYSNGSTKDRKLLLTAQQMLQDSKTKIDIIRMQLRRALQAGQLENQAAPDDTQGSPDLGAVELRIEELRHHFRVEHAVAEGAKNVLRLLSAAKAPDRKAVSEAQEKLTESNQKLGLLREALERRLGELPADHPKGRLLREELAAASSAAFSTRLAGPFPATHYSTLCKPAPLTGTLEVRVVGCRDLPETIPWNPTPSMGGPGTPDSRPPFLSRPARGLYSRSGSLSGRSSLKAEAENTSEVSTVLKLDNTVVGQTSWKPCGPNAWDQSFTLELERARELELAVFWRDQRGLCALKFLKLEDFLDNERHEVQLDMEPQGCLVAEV
T3 sequence (Q63433 whole entry): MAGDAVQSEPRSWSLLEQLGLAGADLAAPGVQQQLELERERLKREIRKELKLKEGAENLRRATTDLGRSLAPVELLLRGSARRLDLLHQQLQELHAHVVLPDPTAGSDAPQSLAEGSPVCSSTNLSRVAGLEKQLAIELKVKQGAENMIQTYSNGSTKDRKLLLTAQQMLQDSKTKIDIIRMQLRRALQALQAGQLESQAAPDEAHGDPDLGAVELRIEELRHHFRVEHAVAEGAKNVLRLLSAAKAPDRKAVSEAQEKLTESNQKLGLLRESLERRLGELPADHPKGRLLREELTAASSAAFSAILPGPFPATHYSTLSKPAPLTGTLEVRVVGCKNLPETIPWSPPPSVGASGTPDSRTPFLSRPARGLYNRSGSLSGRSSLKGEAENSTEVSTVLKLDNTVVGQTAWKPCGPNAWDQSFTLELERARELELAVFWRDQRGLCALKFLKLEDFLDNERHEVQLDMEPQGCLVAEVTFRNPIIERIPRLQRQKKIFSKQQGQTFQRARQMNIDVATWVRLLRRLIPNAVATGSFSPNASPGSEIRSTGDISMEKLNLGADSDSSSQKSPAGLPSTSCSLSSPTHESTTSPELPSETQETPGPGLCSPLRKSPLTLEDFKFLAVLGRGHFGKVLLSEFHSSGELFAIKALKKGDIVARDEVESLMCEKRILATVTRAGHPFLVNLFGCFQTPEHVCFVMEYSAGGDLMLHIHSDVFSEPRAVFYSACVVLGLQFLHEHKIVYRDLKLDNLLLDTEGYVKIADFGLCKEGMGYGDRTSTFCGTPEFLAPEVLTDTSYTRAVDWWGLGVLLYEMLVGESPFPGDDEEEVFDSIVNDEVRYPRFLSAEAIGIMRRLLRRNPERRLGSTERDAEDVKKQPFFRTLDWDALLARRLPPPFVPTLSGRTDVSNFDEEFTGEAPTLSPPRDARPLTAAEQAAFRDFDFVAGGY
T2 sequence (Q63433 whole entry): as above
T4 sequence (P61586 1-189 G14V): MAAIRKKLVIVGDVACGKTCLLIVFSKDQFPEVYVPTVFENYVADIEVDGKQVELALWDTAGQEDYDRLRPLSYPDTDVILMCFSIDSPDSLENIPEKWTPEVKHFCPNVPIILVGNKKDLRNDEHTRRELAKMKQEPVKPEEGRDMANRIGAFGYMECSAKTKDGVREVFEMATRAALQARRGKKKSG

B1: HuActSkl (604-719): human skeletal muscle type α-actinin fragment, GST fusion (protein)
chain: MDELRTKWDKVKQLVPIRDQSLQEELARQHANERLRRQFAAQANAIGPWIQNKMEEIARSSIQITGALEDQMNQLKQYEHNIINYKNNIDKLEGDHQLIQEALVFDNKHTNYTMEH
modifications: left off: a dimerising Fc or GST
notes: human skeletal muscle type α-actinin fragment, GST fusion
B1: the “binding of in vitro translated PKNN2 to the fragment” value (“binding of in vitro translated PKNN2” below) in experiment [1] is recorded as “not”.

B2: NFM: neurofilament subunit M; native bovine in b342, GST-head-rod domain fusion in b344 (protein, UniProt O77788 2-926, looked up)
Neurofilament medium …: SYTLDSLGNPSAYRRVTETRSSFSRISGSPSSGFRSQSWSRGSPSTVSSSYKRSALAPRLTYSSAMLSSAESSLDFSQSSSLLDGGSGPGGDYKLSRSNEKEQIQGLNDRFAGYIEKVHYLEQQNKEIEAEIQALRQKQASHAQLGDAYDQEIRELRATLEMVNHEKAQVQLDSDHLEEDIHRLKERFEEEARLRDDTEAAIRALRKDIEESSLVKVELDKKVQSLQDEVAFLRSNHEEEVADLLAQIQASHITVERKDYLKTDISTALKEIRSQLESHSDQNMHQAEEWFKCRYAKLTEAAEQNKEAIRSAKEEIAEYRRQLQSKSIELESVRGTKESLERQLSDIEERHNHDLSSYQDTIQQLENELRGTKWEMARHLREYQDLLNVKMALDIEIAAYRKLLEGEETRFSTFAGSITGPLYTHRQPSIAISSKIQKTKVEAPKLKVQHKFVEEIIEETKVEDEKSEMEEALTAITEELAVSVKEEVKEEEAEEKEEKEEAEEEVVAAKKSPVKATAPELKEEEGEKEEEEGQEEEEEEEEAAKSDQAEEGGSEKEGSSEKEEGEQEEEGETEAEGEGEEAAAEAKEEKKMEEKAEEVAPKEELAAEAKVEKPEKAKSPVAKSPTTKSPTAKSPEAKSPEAKSPTAKSPTAKSPVAKSPTAKSPEAKSPEAKSPTAKSPTAKSPAAKSPAPKSPVEEVKPKAEAGAEKGEQKEKVEEEKKEAKESPKEEKAEKKEEKPKDVPEKKKAESPVKAESPVKEEVPAKPVKVSPEKEAKEEEKPQEKEKEKEKVEEVGGKEEGGLKESRKEDIAINGEVEGKEEEQETKEKGSGGEEEKGVVTNGLDVSPGDEKKGGDKSEEKVVVTKMVEKITSEGGDGATKYITKSVTVTQKVEEHEETFEEKLVSTKKVEKVTSHAIVKEVTQSD
For the molecule B2, the “relative 32P incorporation into GST-head-rod domain (ratio NFH:NFM:NFL)” value with PKN was determined as 10. Besides, the “extent of maximal phosphorylation by PKN per mol subunit of protein” value in experiment [2] is reported as “about 6 mol/mol”.

B3: HuActSkl (486-607): human skeletal muscle type α-actinin fragment, spectrin-like repeat 3, GST fusion (protein, UniProt P35609 486-607, looked up, fragment)
chain: ICDQWDRLGTLTQKRREALERMEKLLETIDQLHLEFAKRAAPFNNWMEGAMEDLQDMFIVHSIEEIQSLITAHEQFKATLPEADGERQSIMAIQNEVEKVIQSYNIRISSSNPYSTVTMDEL
modifications: GST fusion
notes: human skeletal muscle type α-actinin fragment, spectrin-like repeat 3, GST fusion
B3: the “binding of in vitro translated PKNN2” value in experiment [1] is given as “strongly bound”.

B4: HuActSkl (423-653): human skeletal muscle type α-actinin fragment, GST fusion (protein)
chain: ILLQKDYESASLTEVRALLRKHEAFESDLAAHQDRVEQIAAIAQELNELDYHDAVNVNDRCQKICDQWDRLGTLTQKRREALERMEKLLETIDQLHLEFAKRAAPFNNWMEGAMEDLQDMFIVHSIEEIQSLITAHEQFKATLPEADGERQSIMAIQNEVEKVIQSYNIRISSSNPYSTVTMDELRTKWDKVKQLVPIRDQSLQEELARQHANERLRRQFAAQANAIGPWI
modifications: left off: a dimerising Fc or GST
notes: as for B1
B4: the “binding of in vitro translated PKNN2” value in experiment [1] is reported as “strongly bound”.

B5: HuActSkl (653-837): human skeletal muscle type α-actinin fragment, GST fusion (protein)
chain: IQNKMEEIARSSIQITGALEDQMNQLKQYEHNIINYKNNIDKLEGDHQLIQEALVFDNKHTNYTMEHIRVGWELLLTTIARTINEVETQILTRDAKGITQEQMNEFRASFNHFDRRKNGLMDHEDFRACLISMGYDLGEAEFARIMTLVDPNGQGTVTFQSFIDFMTRETADTDTAEQVIASFRI
modifications: left off: a dimerising Fc or GST
notes: as for B1
In the case of B5, in experiment [1], the “binding of in vitro translated PKNN2” value is “strongly bound”.

B6: NFL: neurofilament subunit L; native bovine in b342, GST-head-rod domain fusion in b344 (protein, UniProt P02548 2-555, looked up)
Neurofilament light …: SSFSYEPYYSTSYKRRYVETPRVHISSVRSGYSTARSAYSSYSAPVSSSLSVRRSYSSSSGSLMPSLESLDLSQVAAISNDLKSIRTQEKAQLQDLNDRFASFIERVHELEQQNKVLEAELLVLRQKHSEPSRFRALYEQEIRDLRLAAEDATNEKQALQGEREGLEETLRNLQARYEEEVLSREDAEGRLMEARKGADEAALARAELEKRIDSLMDEIAFLKKVHEEEIAELQAQIQYAQISVEMDVSSKPDLSAALKDIRAQYEKLAAKNMQNAEEWFKSRFTVLTESAAKNTDAVRAAKDEVSESRRLLKAKTLEIEACRGMNEALEKQLQELEDKQNADISAMQDTINKLENELRTTKSEMARYLKEYQDLLNVKMALDIEIAAYRKLLEGEETRLSFTSVGSLTTGYTQSSQVFGRSAYGGLQTSSYLMSARSFPSYYTSHVQEEQIEVEETIEAAKAEEAKDEPPSEGEAEEEEKEKEEAEAEAEAEAEAEAEEEEGAQEEEAAKEDAEEAKEEEGGEGEEAEETKEAEEEEKKDEGAGEEQATKKKD
In the case of B6, the “relative 32P incorporation into GST-head-rod domain (ratio NFH:NFM:NFL)” value with PKN turned out to be 2. The “extent of maximal phosphorylation by PKN per mol subunit of protein” value in experiment [2] is recorded as “about 1 mol/mol”.

B7: amino acid sequence 3-135: truncated human PKN, amino acid sequence 3-135 in SEQ ID NO: 1, two-hybrid fusion (protein, UniProt Q16512 3-135, looked up, fragment)
chain: SDAVQSEPRSWSLLEQLGLAGADLAAPGVQQQLELERERLRREIRKELKLKEGAENLRRATTDLGRSLGPVELLLRGSSRRLDLLHQQLQELHAHVVLPDPAATHDGPQSPGAGGPTCSATNLSRVAGLEKQL
modifications: two-hybrid fusion
Turning to B7, the “interaction with RhoA^Val14 CLVL^− (β-galactosidase filter assay)” value with RhoA^Val14 CLVL^− was “interacted”.
